The source of these data is US20200299347A1.

The test has as its target FGFR3. In words: cell-based or functional assay.

Turning to “sprifermin (rhFGF18) (from UniProt O76093 28-196) (ligand)”, the FGF18 EC50 (nM), BaF3/FGFR3 cell proliferation (ATP) assay was 0.02 nM.
